Laboratory results reported in patent publication US20250313644A1 (FUTUREGEN BIOPHARMACEUTICAL BEIJING, published 2025).
Substitutions are numbered along the chain they refer to.

Key:
human TL1A (HuTL1A) [1] = biological target: T1, human TL1A (HuTL1A) (human, UniProt O95150 57-251, limits assumed, biotin-labelled in some assays (site not stated)); assay: DLS, antigen and antibody mixed in equal moles
T1 construct: Expressed in EXPI-293 cells and purified by Ni-NTA (His-tag); Described as a trimeric antigen; also called TL1A antigen; WT
T1 sequence: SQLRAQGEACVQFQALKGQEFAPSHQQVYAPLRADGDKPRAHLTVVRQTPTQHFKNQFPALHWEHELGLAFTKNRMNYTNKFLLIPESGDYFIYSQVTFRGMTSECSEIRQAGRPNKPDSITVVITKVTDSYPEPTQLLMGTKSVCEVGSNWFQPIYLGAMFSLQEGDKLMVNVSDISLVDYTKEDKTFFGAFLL
Procedure: 60 μM antigen and antibody was mixed in equal moles, incubated at room temperature for 30 minutes, and then the molecular size was detected using UNCLE or SEC.

human TL1A (HuTL1A) [2] = biological target: T1, human TL1A (HuTL1A); assay: ELISA: biotin-HuTL1A on streptavidin plate, antibody diluted at pH 6.0, HRP-anti-human Fc, OD450
Procedure: (§1) Corresponding antibodies were added to specific wells, and the antibodies were diluted with sodium dihydrogen phosphate-citrate buffer at pH 7.4, pH 6.0, pH 5.8, or pH 5.6. Binding assay was carried out at room temperature for 30 minutes. After the incubation, the excess antibodies were removed and the wells were washed by PBST. HRP-anti-Human Fc (Sino Biological) was then added into each well and incubated for 30 minutes to detect the bound antibody. The substrate TMB was finally added to develop color for 5-10 minutes. The color development reaction was terminated with 1M sulfuric acid. OD450 nm was recorded on a microplate reader, and the data were processed and fitted by 4 parameter logistic regression.

human TL1A (HuTL1A) [3] = biological target: T1, human TL1A (HuTL1A); assay: ELISA: biotin-HuTL1A on streptavidin plate, antibody diluted at pH 7.4, HRP-anti-human Fc, OD450
Procedure: as §1

human TL1A (HuTL1A) [4] = biological target: T1, human TL1A (HuTL1A); assay: as above; remark: listed apart in the source
Procedure: as §1

human TL1A (HuTL1A) [5] = biological target: T1, human TL1A (HuTL1A); assay: BLI (Gator), His-tagged TL1A on anti-His probe, pH 7.4
Procedure: (§2) Then a serial dilutions of single-arm M701 antibodies and control antibodies were added.

[6] = biological target: T2, cynomolgus monkey/rhesus monkey TL1A (cynomolgus monkey/rhesus monkey); assay: as above
T2 construct: also called Cynomolgus/rhesus monkey TL1A
Procedure: as §2

human TL1A (HuTL1A) [7] = biological target: T1, human TL1A (HuTL1A); assay: BLI (Gator), biotin-HuTL1A on SA probe, pH 7.4; BLI (Gator), pH 7.4
Procedure: The binding kinetics between monoclonal antibodies and antigens was measured using Gator, a label-free biomolecule interaction analyzer based on the principle of biolayer interference (BLI). […] Then a serial dilutions of single-arm M701 antibodies and control antibodies were added. The antibodies interacted with the antigen captured by the SA probe, and the interaction was analyzed by detecting the signal change of the reflection interference spectrum of the probe surface, and finally the binding kinetics constants of the antibodies were calculated. The kinetic constants of antigen and antibodies were measured at pH 7.4 and 5.6 in sodium dihydrogen phosphate-citrate buffer.

human TL1A (HuTL1A) [8] = biological target: T1, human TL1A (HuTL1A); assay: cell-based or functional assay

B1: M701-3912 (antibody, human IgG1, kappa, L234A L235A, V domains shown)
VH: ELQLQESGPGLVKPSETLSLTCAVSGISFNDFHWAWIRQPPGKGLEWIGDINHRGHTSYNPSLKSRVTVSVDTSKNQFSLKLSSVTAADTAVYYCARDYPNFTFDLWGQGTLVTVSS
VL: DIQMTQSPATLSLSPGERATLSCRASQSVSTYLAWYQQKPGQAPRLLIYGASRRATGIPARFSGSGSGTDFTLTISSLQSEDFAVYYCQQYGDTPLTFGQGTKVEIKR
notes: Fc-engineered IgG1
For B1, the “Ave Z-dia (nm) of the antigen-antibody complex” value (shortened to “Ave Z-dia (nm)”) (human TL1A (HuTL1A) [1]) was 18.5 nm.

B2: single-arm antibody 4035 (antibody, human IgG1, kappa, L234A L235A)
heavy: ELQLQESGPGLVKPSETLSLTCAVSGISFNDFHWAWIRQPPGKGLEWIGDINHRGHTSYNPSLKSRVTVSVDTSKNQFSLKLSSVTAADTAVYYCARDYPNFTFDLWGQGTLVTVSSASTKGPSVFPLAPSSKSTSGGTAALGCLVKDYFPEPVTVSWNSGALTSGVHTFPAVLQSSGLYSLSSVVTVPSSSLGTQTYICNVNHKPSNTKVDKKVEPKSCDKTHTCPPCPAPEAAGGPSVFLFPPKPKDTLMISRTPEVTCVVVDVSHEDPEVKFNWYVDGVEVHNAKTKPREEQYNSTYRVVSVLTVLHQDWLNGKEYKCKVSNKALGAPIEKTISKAKGQPREPQVYTLPPCREEMTKNQVSLWCLVKGFYPSDIAVEWESNGQPENNYKTTPPVLDSDGSFFLYSKLTVDKSRWQQGNVFSCSVMHEALHNHYTQKSLSLSPG
light: not shown
chain: DKTHTCPPCPAPEAAGGPSVFLFPPKPKDTLMISRTPEVTCVVVDVSHEDPEVKFNWYVDGVEVHNAKTKPREEQYNSTYRVVSVLTVLHQDWLNGKEYKCKVSNKALGAPIEKTISKAKGQPREPQVCTLPPSREEMTKNQVSLSCAVKGFYPSDIAVEWESNGQPENNYKTTPPVLDSDGSFFLVSKLTVDKSRWQQGNVFSCSVMHEALHNHYTQKSLSLSPG
notes: Single-arm form of 3912; also called M701-4035
In the case of B2, the “EC50 (read off the curve)” value (human TL1A (HuTL1A) [2]) is reported as ~1 nM, the “EC50 (read off the curve)” value (human TL1A (HuTL1A) [3]) is reported as ~0.3 nM and the “EC50 (read off the curve)” value (human TL1A (HuTL1A) [4]) is reported as ~0.3 nM.

B3: single-arm antibody 3900 (antibody, human IgG1, kappa, L234A L235A)
heavy: EVQLQESGPGLVKPSETLSLTCAVSGVSYSDYHWAWIRQPPGKGLEWIGDINHKGKTNYNPSLKSRVTISVDTSKNQFSLKLSSVTAADTAVYYCARDYPNFLFDYWGQGTLVTVSSASTKGPSVFPLAPSSKSTSGGTAALGCLVKDYFPEPVTVSWNSGALTSGVHTFPAVLQSSGLYSLSSVVTVPSSSLGTQTYICNVNHKPSNTKVDKKVEPKSCDKTHTCPPCPAPEAAGGPSVFLFPPKPKDTLMISRTPEVTCVVVDVSHEDPEVKFNWYVDGVEVHNAKTKPREEQYNSTYRVVSVLTVLHQDWLNGKEYKCKVSNKALGAPIEKTISKAKGQPREPQVYTLPPCREEMTKNQVSLWCLVKGFYPSDIAVEWESNGQPENNYKTTPPVLDSDGSFFLYSKLTVDKSRWQQGNVFSCSVMHEALHNHYTQKSLSLSPG
light: not shown
chain: B2 chain
notes: also called M701-3900
In the case of B3, the “EC50 (read off the curve)” value (human TL1A (HuTL1A) [2]) is reported as ~0.9 nM, the “EC50 (read off the curve)” value (human TL1A (HuTL1A) [3]) is reported as ~0.5 nM and the “EC50 (read off the curve)” value (human TL1A (HuTL1A) [4]) is reported as ~0.5 nM.

B4: single-arm antibody 3672 (antibody, human IgG1, kappa, L234A L235A)
heavy: ELQLQESGPGLVKPSETLSLTCAVSGLSFTDFYWAWIRQPPGKGLEWIGEINHKGNTSYNPSLKSRVTVSIDTSKNQFSLKLSSVTAADTAVYFCARDFPNYTFDFWGQGTLVTVSSASTKGPSVFPLAPSSKSTSGGTAALGCLVKDYFPEPVTVSWNSGALTSGVHTFPAVLQSSGLYSLSSVVTVPSSSLGTQTYICNVNHKPSNTKVDKKVEPKSCDKTHTCPPCPAPEAAGGPSVFLFPPKPKDTLMISRTPEVTCVVVDVSHEDPEVKFNWYVDGVEVHNAKTKPREEQYNSTYRVVSVLTVLHQDWLNGKEYKCKVSNKALGAPIEKTISKAKGQPREPQVYTLPPCREEMTKNQVSLWCLVKGFYPSDIAVEWESNGQPENNYKTTPPVLDSDGSFFLYSKLTVDKSRWQQGNVFSCSVMHEALHNHYTQKSLSLSPG
light: not shown
chain: B2 chain
notes: also called M701-3672
In the case of B4, the “EC50 (read off the curve)” value (human TL1A (HuTL1A) [3]) is reported as ~3 nM and the “EC50 (read off the curve)” value (human TL1A (HuTL1A) [4]) is reported as ~3 nM.

B5: single-arm antibody M701-3952 (antibody, human IgG1, kappa, L234A L235A)
heavy: B2 heavy with I27V, N30S, F32Y, S58N, V71I, Y94F, Y99F, T103I, L106Y
light: not shown
chain: B2 chain
For B5, the “EC50 (read off the curve)” value (human TL1A (HuTL1A) [3]) was ~0.5 nM, the Kd (human TL1A (HuTL1A) [5]) was 5.68 nM and the koff (human TL1A (HuTL1A) [5]) was 0.00346 s⁻¹. The kon (human TL1A (HuTL1A) [5]) was 610000 M⁻¹ s⁻¹, the Kd [6] was 5.75 nM and the koff [6] was 0.0036 s⁻¹. The kon [6] was 626000 M⁻¹ s⁻¹, the “EC50 (read off the curve)” value (human TL1A (HuTL1A) [4]) was ~0.5 nM and the Kd (human TL1A (HuTL1A) [7]) was 5.25 nM. For the same binder, the koff (human TL1A (HuTL1A) [7]) was 0.00306 s⁻¹ and the kon (human TL1A (HuTL1A) [7]) was 582000 M⁻¹ s⁻¹.

B6: single-arm antibody M701-3990 (antibody, human IgG1, kappa, L234A L235A)
heavy: B2 heavy with I27V, N30T, F32Y, S58N, V71I, T103I, F104Y, L106Y
light: not shown
chain: B2 chain
notes: Single-arm form of 4019
In the case of B6, the “EC50 (read off the curve)” value (human TL1A (HuTL1A) [2]) is reported as ~1 nM, the “EC50 (read off the curve)” value (human TL1A (HuTL1A) [3]) is reported as ~0.4 nM and the Kd (human TL1A (HuTL1A) [5]) is reported as 4.89 nM. The koff (human TL1A (HuTL1A) [5]) was 0.00214 s⁻¹, the kon (human TL1A (HuTL1A) [5]) was 438000 M⁻¹ s⁻¹ and the Kd [6] was 4.51 nM. The koff [6] was 0.00208 s⁻¹, the kon [6] was 462000 M⁻¹ s⁻¹ and the “EC50 (read off the curve)” value (human TL1A (HuTL1A) [4]) was ~0.4 nM. For the same binder, the Kd (human TL1A (HuTL1A) [7]) was 4.26 nM, the koff (human TL1A (HuTL1A) [7]) was 0.00168 s⁻¹ and the kon (human TL1A (HuTL1A) [7]) was 394000 M⁻¹ s⁻¹.

B7: M701-3756 (antibody, human IgG1, kappa, L234A L235A, V domains shown)
VH: ELQLQESGPGLVKPSETLSLTCAVSGLSFTDFYWAWIRQPPGKGLEWIGEINHKGNTSYNPSLKSRVTVSIDTSKNQFSLKLSSVTAADTAVYFCARDFPNYTFDFWGQGTLVTVSS
VL: DIQLTQSPGTLSLSPGERATLSCRASQSVSNHLAWYQQKPGQAPRLLIYGASKRATGIPDRFSGSGSGTDFTLTISRLEPEDFAVYYCQQYADAPLTFGQGTKVEIKR
notes: Fc-engineered IgG1; from the original phage library
For B7, the “Ave Z-dia (nm)” value (human TL1A (HuTL1A) [1]) was 19.1 nm and the “IC50 (read off the curve); SEAP reporter in HEK293T/DR3-NFκB cells with soluble TL1A, OD655” value (human TL1A (HuTL1A) [8]) was ~1 nM.

B8: M701-3876 (antibody, human IgG1, kappa, L234A L235A, V domains shown)
VH: EVQLQESGPGLVKPSETLSLTCAVSGVSYSDYHWAWIRQPPGKGLEWIGDINHKGKTNYNPSLKSRVTISVDTSKNQFSLKLSSVTAADTAVYYCARDYPNFLFDYWGQGTLVTVSS
VL: B7 VL with D1A, L4M, N31S, K53R, D60A, A94S
notes: Fc-engineered IgG1
For B8, the “Ave Z-dia (nm)” value (human TL1A (HuTL1A) [1]) was 18.7 nm and the “IC50 (read off the curve); SEAP reporter in HEK293T/DR3-NFκB cells with soluble TL1A, OD655” value (human TL1A (HuTL1A) [8]) was ~1 nM.
